From paper doi:10.1101/2025.06.13.659598 come the findings set out here.

In general, stoichiometry N refers to a count of units in the complex or per binding partner.

The assay concerns the target nesprin-2G SR11-13 (spectrin repeats 11-13 of human nesprin-2) (human). Briefly: co-sedimentation.

Chain of FHOD1 wild-type, full length (Q9Y613 whole entry): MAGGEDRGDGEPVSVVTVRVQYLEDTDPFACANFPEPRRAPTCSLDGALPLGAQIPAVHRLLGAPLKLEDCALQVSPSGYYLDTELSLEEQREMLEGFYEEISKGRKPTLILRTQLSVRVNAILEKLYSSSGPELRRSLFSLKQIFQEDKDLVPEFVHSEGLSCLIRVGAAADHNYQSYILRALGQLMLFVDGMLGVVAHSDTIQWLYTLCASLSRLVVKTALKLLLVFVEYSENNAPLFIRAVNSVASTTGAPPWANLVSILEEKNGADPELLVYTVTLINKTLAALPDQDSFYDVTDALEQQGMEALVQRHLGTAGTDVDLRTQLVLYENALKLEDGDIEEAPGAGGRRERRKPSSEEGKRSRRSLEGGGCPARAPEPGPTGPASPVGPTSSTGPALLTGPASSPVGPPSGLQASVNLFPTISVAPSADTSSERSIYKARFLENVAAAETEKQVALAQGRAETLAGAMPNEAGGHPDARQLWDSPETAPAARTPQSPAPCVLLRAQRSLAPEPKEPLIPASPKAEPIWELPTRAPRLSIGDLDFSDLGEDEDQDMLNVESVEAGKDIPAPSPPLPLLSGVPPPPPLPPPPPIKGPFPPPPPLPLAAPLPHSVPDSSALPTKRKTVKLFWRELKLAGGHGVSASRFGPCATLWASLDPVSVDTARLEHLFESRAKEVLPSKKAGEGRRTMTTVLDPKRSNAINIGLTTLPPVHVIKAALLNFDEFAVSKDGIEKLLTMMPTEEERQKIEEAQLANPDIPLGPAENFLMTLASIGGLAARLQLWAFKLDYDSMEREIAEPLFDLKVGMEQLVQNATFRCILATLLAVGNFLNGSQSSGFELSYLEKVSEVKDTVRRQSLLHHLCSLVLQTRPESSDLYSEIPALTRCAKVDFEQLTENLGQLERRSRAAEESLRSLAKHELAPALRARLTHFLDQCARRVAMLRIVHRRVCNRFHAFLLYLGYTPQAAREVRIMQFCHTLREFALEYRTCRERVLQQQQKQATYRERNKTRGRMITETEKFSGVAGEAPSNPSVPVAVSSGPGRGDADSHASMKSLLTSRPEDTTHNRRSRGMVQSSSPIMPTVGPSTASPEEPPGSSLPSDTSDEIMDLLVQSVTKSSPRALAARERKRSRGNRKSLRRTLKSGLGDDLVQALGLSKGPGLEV

In turn, “FHOD3 wild-type (from UniProt Q2V2M9 1-1422) (natural protein)” had a stoichiometry N (scale: FHOD3 WT per SR11-13) of 1.3. Substance “FHOD1 wild-type, full length (from UniProt Q9Y613 1-1164) (natural protein)” returned a stoichiometry N (scale: FHOD1 WT per SR11-13) of 1.18.
